Test results taken from patent US8986682B2, “Method to increase the absorption of unsaturated fatty acids by human infants” (Swedish Orphan Biovitrum AB (publ), priority 2010, dated 2015).
Several values for one entry are separate records, joined by “and”; a condition that tells them apart may be missing. Equal entries are not always repeated. Marks after values point to notes of the source that are not given here.

System: preterm infants born before week 32 of gestational age
Experiment: Coefficient of fat absorption (CFA), fat balance of food and stool by gas chromatography, studies BVT.BSSL-020/-021
Assay type: in vivo, human
Conditions: PP
Experimental: Patients were randomized to infant formula/pasteurized breast milk supplemented with rhBSSL at a final concentration of 0.15 g/L, or to infant formula/pasteurized breast milk “supplemented” with sterile water for injection (as placebo) for the first 7 days. After a washout period of 2 days, the patient was “crossed over” to the other treatment regimen during a second 7-day treatment period. Collection of feces samples for CFA assessment were performed during the last 3 days (72 hours) of each treatment period.
The collection of feces for the determination of CFA was performed over a period corresponding to the fat, i.e., formula or milk, ingestion during 72 hours toward the end of each treatment period. Diapers supplied to each site were used for feces collection. During the two treatment periods, a carmine red tracer dye was given as a marker together with a meal (approximately at noon) on Day 4 and Day 13, respectively, and collection of stool commenced with the appearance of the first carmine red marker in the stool. The stool containing the first marker was collected and the date and time of the first stool collected was recorded on the CRF. At 72 hours following administration of the first red marker, the second carmine marker was given, and stool collection continued until the second carmine marker appeared. The stool containing the second marker was not collected, but the date and time of the appearance of the second marker was recorded on the CRF. Diapers were weighed before placement and after removal and the difference in weight was recorded on the CRF. The times of each collection and the elapsed duration of the entire collection period was also recorded on the CRF. The use of ointments for the treatment of skin irritation was prohibited during the stool collection period. Diapers were to be changed frequently during the collection period to keep the skin dry. Patients with skin rash severity leading to discontinuation of the stool collection were to be withdrawn from the study. Specific collection methods were provided in a separate laboratory manual. If applicable, vomit from the stool collection periods of both treatment periods was weighed. A small cloth/linen was weighed and placed under the head of each infant. When the cloth/linen was soiled with vomit, it was removed and re-weighed. If an additional cloth was used to remove vomit from the infant, that cloth was also weighed before and after use. The weight of vomit (total weight minus the weight of the cloth/linen) was recorded on the CRF. All other feed losses, e.g., formula or milk left in bottle, were measured and the amount accounted for in the calculation of the volume of formula consumed at each feeding.
Feces samples, the formula (study 020) and the milk aliquots (study 021) were analyzed by a central laboratory. Individual fatty acids, including the long-chain polyunsaturated fatty acids DHA and AA, were quantified in feces and feed by a gas chromatographic method following extraction by the Folch method. In both studies, the Omegawax 250 column (Supelco) was used for separation of the fatty acids. However, due to co-elution of DHA with nervonic acid (C24:1), which was only present in the breast milk, samples from patients of the per-protocol analysis set from study 021 were also analyzed using a SP-2380 column (Supelco) in order to quantify DHA for those samples from study 021. […] Total lipids were calculated as the sum of the individual fatty acids. (See Section 7.5.1). The same analytical principle was used to determine lipids in each of the batches of formula and aliquots of breast milk used in the study. […]

[1] = BVT.BSSL-020 (infant formula), 72-hour collection period
[2] = BVT.BSSL-021 (pasteurized breast milk)

B1: rhBSSL: recombinant human bile-salt-stimulated lipase, SEQ ID. NO. 1, expressed from recombinant CHO cells; used in both clinical trials (protein, listed as Homo sapiens)
chain: AKLGAVYTEGGFVEGVNKKLGLLGDSVDIFKGIPFAAPTKALENPQPHPGWQGTLKAKNFKKRCLQATITQDSTYGDEDCLYLNIWVPQGRKQVSRDLPVMIWIYGGAFLMGSGHGANFLNNYLYDGEEIATRGNVIVVTFNYRVGPLGFLSTGDANLPGNYGLRDQHMAIAWVKRNIAAFGGDPNNITLFGESAGGASVSLQTLSPYNKGLIRRAISQSGVALSPWVIQKNPLFWAKKVAEKVGCPVGDAARMAQCLKVTDPRALTLAYKVPLAGLEYPMLHYVGFVPVIDGDFIPADPINLYANAADIDYIAGTNNMDGHIFASIDMPAINKGNKKVTEEDFYKLVSEFTITKGLRGAKTTFDVYTESWAQDPSQENKKKTVVDFETDVLFLVPTEIALAQHRANAKSAKTYAYLFSHPSRMPVYPKWVGADHADDIQYVFGKPFATPTGYRPQDRTVSKAMIAYWTNFAKTGDPNMGDSAVPTHWEPYTTENSGYLEITKKMGSSSMKRSLRTNFLRYWTLTYLALPTVTDQEATPVPPTGDSEATPVPPTGDSETAPVPPTGDSGAPPVPPTGDSGAPPVPPTGDSGAPPVPPTGDSGAPPVPPTGDSGAPPVPPTGDSGAPPVPPTGDSGAPPVPPTGDAGPPPVPPTGDSGAPPVPPTGDSGAPPVTPTGDSETAPVPPTGDSGAPPVPPTGDSEAAPVPPTDDSKEAQMPAVIRF
CFA (overall), LS Mean (BVT.BSSL-020 (infant formula)): 69.46%
CFA (overall), LS Mean Difference (rhBSSL − Placebo) (BVT.BSSL-020 (infant formula)): 2.08%
CFA (overall), Maximum (BVT.BSSL-020 (infant formula)): 89.0%
CFA (overall), Mean (SD) (BVT.BSSL-020 (infant formula)): 69.55 (14.452) %
CFA (overall), Median (BVT.BSSL-020 (infant formula)): 70.99%
CFA (overall), Minimum (BVT.BSSL-020 (infant formula)): 36.8%
CFA for C12:0 (BVT.BSSL-020 (infant formula)): 89.70%
CFA for C12:0, Difference (rhBSSL − Placebo) (BVT.BSSL-020 (infant formula)): 1.18%
CFA for C14:0 (BVT.BSSL-020 (infant formula)): 76.56%
CFA for C14:0, Difference (rhBSSL − Placebo) (BVT.BSSL-020 (infant formula)): 3.19%
CFA for C16:0 (BVT.BSSL-020 (infant formula)): 46.95%
CFA for C16:0, Difference (rhBSSL − Placebo) (BVT.BSSL-020 (infant formula)): 0.45%
CFA for C18:0 (BVT.BSSL-020 (infant formula)): 42.20%
CFA for C18:0, Difference (rhBSSL − Placebo) (BVT.BSSL-020 (infant formula)): −1.10%
CFA for C18:1 (BVT.BSSL-020 (infant formula)): 76.24%
CFA for C18:1, Difference (rhBSSL − Placebo) (BVT.BSSL-020 (infant formula)): 2.37%
CFA for C18:2 n-6 (BVT.BSSL-020 (infant formula)): 83.91%
CFA for C18:2 n-6, Difference (rhBSSL − Placebo) (BVT.BSSL-020 (infant formula)): 4.99%
CFA for C18:3 n-3 (BVT.BSSL-020 (infant formula)): 87.79%
CFA for C18:3 n-3, Difference (rhBSSL − Placebo) (BVT.BSSL-020 (infant formula)): 4.42%
CFA for C20:4 n-6 (AA) (BVT.BSSL-020 (infant formula)): 82.96%
CFA for C20:4 n-6 (AA), Difference (rhBSSL − Placebo) (BVT.BSSL-020 (infant formula)): 7.14%
CFA for C22:6 n-3 (DHA) (BVT.BSSL-020 (infant formula)): 81.15%
CFA for C22:6 n-3 (DHA), Difference (rhBSSL − Placebo) (BVT.BSSL-020 (infant formula)): 6.85%
Total Amount of Fat in Stool, Maximum [1]: 15.0 g
Total Amount of Fat in Stool, Mean (SD) [1]: 8.53 g and 8.53 (3.416) g
Total Amount of Fat in Stool, Median [1]: 8.63 g
Total Amount of Fat in Stool, Minimum [1]: 3.2 g
Coefficient of absorption of the sum of all LCPUFAs, LS mean (BVT.BSSL-020 Formula): 82.2%
Coefficient of absorption of the sum of all LCPUFAs, LS mean difference (rhBSSL-Placebo) (BVT.BSSL-020 Formula): 7.01%
Coefficient of absorption of the sum of all polyunsaturated fatty acids, LS mean (BVT.BSSL-020 Formula): 84.0%
Coefficient of absorption of the sum of all polyunsaturated fatty acids, LS mean difference (rhBSSL-Placebo) (BVT.BSSL-020 Formula): 5.05%
Coefficient of absorption of the sum of all saturated fatty acids, LS mean (BVT.BSSL-020 Formula): 61.4%
Coefficient of absorption of the sum of all saturated fatty acids, LS mean difference (rhBSSL-Placebo) (BVT.BSSL-020 Formula): 0.08%
Coefficient of absorption of the sum of all unsaturated fatty acids, LS mean (BVT.BSSL-020 Formula): 78.8%
Coefficient of absorption of the sum of all unsaturated fatty acids, LS mean difference (rhBSSL-Placebo) (BVT.BSSL-020 Formula): 3.25%
Coefficient of absorption of the sum of all LCPUFAs, LS mean (BVT.BSSL-020 and 021 Combined): 76.1%
Coefficient of absorption of the sum of all LCPUFAs, LS mean difference (rhBSSL-Placebo) (BVT.BSSL-020 and 021 Combined): 7.33%
Coefficient of absorption of the sum of all polyunsaturated fatty acids, LS mean (BVT.BSSL-020 and 021 Combined): 77.3%
Coefficient of absorption of the sum of all polyunsaturated fatty acids, LS mean difference (rhBSSL-Placebo) (BVT.BSSL-020 and 021 Combined): 5.82%
Coefficient of absorption of the sum of all saturated fatty acids, LS mean (BVT.BSSL-020 and 021 Combined): 63.8%
Coefficient of absorption of the sum of all saturated fatty acids, LS mean difference (rhBSSL-Placebo) (BVT.BSSL-020 and 021 Combined): 2.25%
Coefficient of absorption of the sum of all unsaturated fatty acids, LS mean (BVT.BSSL-020 and 021 Combined): 74.7%
Coefficient of absorption of the sum of all unsaturated fatty acids, LS mean difference (rhBSSL-Placebo) (BVT.BSSL-020 and 021 Combined): 4.22%
CFA (overall), LS Mean [2]: 68.56%
CFA (overall), LS Mean Difference (rhBSSL − Placebo) [2]: 4.86%
CFA (overall), Maximum [2]: 93.2%
CFA (overall), Mean (SD) [2]: 68.46 (15.333) %
CFA (overall), Median [2]: 75.41%
CFA (overall), Minimum [2]: 31.2%
CFA for C12:0 [2]: 87.94%
CFA for C12:0, Difference (rhBSSL − Placebo) [2]: 3.50%
CFA for C14:0 [2]: 75.49%
CFA for C14:0, Difference (rhBSSL − Placebo) [2]: 5.94* %
CFA for C16:0 [2]: 63.88%
CFA for C16:0, Difference (rhBSSL − Placebo) [2]: 4.46%
CFA for C16:1 [2]: 96.24%
CFA for C16:1, Difference (rhBSSL − Placebo) [2]: 0.45%
CFA for C18:0 [2]: 46.11%
CFA for C18:0, Difference (rhBSSL − Placebo) [2]: 3.63%
CFA for C18:1 [2]: 71.01%
CFA for C18:1, Difference (rhBSSL − Placebo) [2]: 4.77%
CFA for C18:2 n-6 [2]: 71.26%
CFA for C18:2 n-6, Difference (rhBSSL − Placebo) [2]: 6.98* %
CFA for C18:3 n-3 [2]: 64.39%
CFA for C18:3 n-3, Difference (rhBSSL − Placebo) [2]: 2.04%
CFA for C18:3 n-6 [2]: 63.94%
CFA for C18:3 n-6, Difference (rhBSSL − Placebo) [2]: 5.82%
CFA for C20:1 [2]: 52.09%
CFA for C20:1, Difference (rhBSSL − Placebo) [2]: 8.53%
CFA for C20:2 n-6 [2]: 53.09%
CFA for C20:2 n-6, Difference (rhBSSL − Placebo) [2]: 8.37* %
CFA for C20:3 n-6 (sum of C20:3 n-6 and C20:3 n-3) [2]: 67.39§ %
